Assays:
Assay in all cases: purified protein
[1] = substrate: O=[N+]([O-])c1ccc(O[C@H]2C=C(CO)[C@H](O)[C@H](O)[C@H]2O)c([N+](=O)[O-])c1; conditions: 50 mM HEPES pH 7.4, 37 °C, covalent intermediate slowly hydrolysed, 3b equilibrates in D2O with its C-2 aryloxy isomer (~2:1)
[2] = substrate: O=[N+]([O-])c1ccc(O[C@H]2O[C@H](CO)[C@H](O)[C@H](O)[C@H]2F)c([N+](=O)[O-])c1; conditions: 50 mM HEPES pH 7.4, 37 °C, printed Km does not agree with printed kcat and kcat/Km (possible misprint)
[3] = substrate: O=[N+]([O-])c1ccc(O[C@H]2C=C(CO)[C@H](O)[C@H](O)[C@H]2F)c([N+](=O)[O-])c1; conditions: 50 mM HEPES pH 7.4, 37 °C, covalent intermediate slowly hydrolysed, apparent binding constant
[4] = substrate: O=[N+]([O-])c1ccc(O[C@H]2O[C@H](CO)[C@H](O)[C@H](O)[C@H]2O)cc1; conditions: 50 mM HEPES pH 7.4, 37 °C, acid/base mutant

Protein	Km [1]	Km [2]	Km [3]	kcat [3]	kcat/Km [3]	Km [4]	kcat [4]	kcat/Km [4]
TmGalA (Thermotoga maritima MSB8) (protein) MEIFGKTFREGRFVLKEKNFTVEFAVEKIHLGWKISGRVKGSPGRLEVLRTKAPEKVLVNNWQSWGPCRVVDAFSFKPPEIDPNWRYTASVVPDVLERNLQSDYFVAEEGKVYGFLSSKIAHPFFAVEDGELVAYLEYFDVEFDDFVPLEPLVVLEDPNTPLLLEKYAELVGMENNARVPKHTPTGWCSWYHYFLDLTWEETLKNLKLAKNFPFEVFQIDDAYEKDIGDWLVTRGDFPSVEEMAKVIAENGFIPGIWTAPFSVSETSDVFNEHPDWVVKENGEPKMAYRNWNKKIYALDLSKDEVLNWLFDLFSSLRKMGYRYFKIDFLFAGAVPGERKKNITPIQAFRKGIETIRKAVGEDSFILGCGSPLLPAVGCVDGMRIGPDTAPFWGEHIEDNGAPAARWALRNAITRYFMHDRFWLNDPDCLILREEKTDLTQKEKELYSYTCGVLDNMIIESDDLSLVRDHGKKVLKETLELLGGRPRVQNIMSEDLRYEIVSSGTLSGNVKIVVDLNSREYHLEKEGKSSLKKRVVKREDGRNFYFYEEGERE	1.68 ± 0.14 µM	253 ± 8 µM	4.1 ± 0.9 µM	0.000229 ± 1.1e-05 s⁻¹	56 ± 13 M⁻¹ s⁻¹			
TmGalA (Thermotoga maritima MSB8; D387A) (protein) MEIFGKTFREGRFVLKEKNFTVEFAVEKIHLGWKISGRVKGSPGRLEVLRTKAPEKVLVNNWQSWGPCRVVDAFSFKPPEIDPNWRYTASVVPDVLERNLQSDYFVAEEGKVYGFLSSKIAHPFFAVEDGELVAYLEYFDVEFDDFVPLEPLVVLEDPNTPLLLEKYAELVGMENNARVPKHTPTGWCSWYHYFLDLTWEETLKNLKLAKNFPFEVFQIDDAYEKDIGDWLVTRGDFPSVEEMAKVIAENGFIPGIWTAPFSVSETSDVFNEHPDWVVKENGEPKMAYRNWNKKIYALDLSKDEVLNWLFDLFSSLRKMGYRYFKIDFLFAGAVPGERKKNITPIQAFRKGIETIRKAVGEDSFILGCGSPLLPAVGCVDGMRIGPATAPFWGEHIEDNGAPAARWALRNAITRYFMHDRFWLNDPDCLILREEKTDLTQKEKELYSYTCGVLDNMIIESDDLSLVRDHGKKVLKETLELLGGRPRVQNIMSEDLRYEIVSSGTLSGNVKIVVDLNSREYHLEKEGKSSLKKRVVKREDGRNFYFYEEGERE						184 ± 7 µM	0.036 s⁻¹	196 M⁻¹ s⁻¹
